Laboratory results reported in US20250002588A1 (DIAGONAL THERAPEUTICS, published 2025).
Where a chain is given by its changes, count along the chain named.

B1: DGL639 (bispecific antibody)
chain 1: EVQLLESGGGLVQPGGSLRLSCAASGFTFSDYYMTWIRQAPGKGLEWVSSISGGSTYYADSRKGRFTISRDNSENTLYLQMNSLRAEDTAVYYCARNVTSGGYFGSFGLDLWGQGTLVTVSSGGGGSGGGGSGGGGSQSVLTQPPSASGTPGQRVTISCTGSSSNIGAGYDVHWYQQLPGTAPKLLIYRSNQRPSGVPDRFSGSKSGTSASLAISGLRSEDEADYYCSSYAGNYNLVFGGGTKLTVLDKTHTCPPCPAPEAAGAPSVFLFPPKPKDTLMISRTPEVTCVVVDVSHEDPEVKFNWYVDGVEVHNAKTKPREEQYNSTYRVVSVLTVLHQDWLNGKEYKCKVSNKALPAPIEKTISKAKGQPREPQVCTLPPSRDELTKNQVSLSCAVKGFYPSDIAVEWESNGQPENNYKTTPPVLDSDGSFFLVSKLTVDKSRWQQGNVFSCSVMHEALHNHYTQKSLSLSPGWSHPQFEK
chain 2: not shown
B2: DGL640 (bispecific antibody)
chain 1: B1 chain 1 with N97W, V98E, F104Y, F107G, D110T, L111I
chain 2: not shown
B3: DGL638 (bispecific antibody)
chain 1: B1 chain 1 with V98E, T99V, F104Y, S106E, D110S
chain 2: not shown
B4: DGL636 (bispecific antibody)
chain 1: B1 chain 1 with N97W, V98E, G101S, Y103G, F107G, D110S, L111H
chain 2: not shown
B5: DGL637 (bispecific antibody)
chain 1: B1 chain 1 with N97L, V98T, T99V, S100D, Y103G, F104Y, F107G
chain 2: not shown
B6: DGL631 (bispecific antibody)
chain 1: not shown
chain 2: EVQLLESGGGLVQPGGSLRLSCAASGFTFSNAWMNWVRQAPGKGLEWVSSISSSSSYIYYADSVKGRFTISRDNSKNTLYLQMNSLRAEDTAVYYCARAVAAGGMFWGLDQWGQGTLVTVTSSGGGGSGGGGSGGGGSQSVLTQPPSASGTPGQRVTISCSGSRSNIGSNSVHWYQQLPGTAPKLLIYGNSNRPSGVPDRFSGSKSGTSASLAISGLRSEDEADYYCQSYDSSLNDHVVFGGGTKLTVLDKTHTCPPCPAPEAAGAPSVFLFPPKPKDTLMISRTPEVTCVVVDVSHEDPEVKFNWYVDGVEVHNAKTKPREEQYNSTYRVVSVLTVLHQDWLNGKEYKCKVSNKALPAPIEKTISKAKGQPREPQVCTLPPSRDELTKNQVSLSCAVKGFYPSDIAVEWESNGQPENNYKTTPPVLDSDGSFFLVSKLTVDKSRWQQGNVFSCSVMHEALHNHYTQKSLSLSPGWSHPQFEK
B7: DGL630 (bispecific antibody)
chain 1: not shown
chain 2: B6 chain 2
B8: DGL623 (bispecific antibody)
chain 1: not shown
chain 2: B6 chain 2
B9: DGL621 (bispecific antibody)
chain 1: not shown
chain 2: B6 chain 2
B10: DGL632 (bispecific antibody)
chain 1: not shown
chain 2: B6 chain 2
B11: DGL622 (bispecific antibody)
chain 1: not shown
chain 2: B6 chain 2
B12: DGL737 (bispecific antibody)
chain 1: not shown
chain 2: B1 chain 1 with N97D, V98F, T99G, S100V, G101A, Y103W, S106Q, F107Y, L109M, L111V
B13: DGL731 (bispecific antibody)
chain 1: B1 chain 1 with N97D, V98F, T99G, S100V, G101S, Y103W, S106Q, F107Y, L109M, L111V
chain 2: not shown
B14: DGL730 (bispecific antibody)
chain 1: B1 chain 1 with N97D, V98Y, T99G, S100V, G101A, Y103W, S106Q, F107Y, L109M, L111V
chain 2: not shown
B15: DGL736 (bispecific antibody)
chain 1: not shown
chain 2: B1 chain 1 with N97D, V98F, T99G, S100V, G101A, Y103W, S106Q, F107Y, L109M, L111V
B16: DGL655 (bispecific antibody)
chain 1: EVQLLESGGGLVQPGGSLRLSCAASGFTFSDSYMSWIRQAPGKGLEWVSSISGGSTYYADSVKGRFTISRDNSENTLYLQMNSLRAEDTAVYYCARDFGVAGYFGQYGMDVWGQGTLVTVSSGGGGSGGGGSGGGGSQSVLTQPPSASGTPGQRVTISCTGSSSNIGAGYDVHWYQQLPGTAPKLLIYRSNQRPSGVPDRFSGSKSGTSASLAISGLRSEDEADYYCSSYAGNYNLVFGGGTKLTVLDKTHTCPPCPAPEAAGAPSVFLFPPKPKDTLMISRTPEVTCVVVDVSHEDPEVKFNWYVDGVEVHNAKTKPREEQYNSTYRVVSVLTVLHQDWLNGKEYKCKVSNKALPAPIEKTISKAKGQPREPQVCTLPPSRDELTKNQVSLSCAVKGFYPSDIAVEWESNGQPENNYKTTPPVLDSDGSFFLVSKLTVDKSRWQQGNVFSCSVMHEALHNHYTQKSLSLSPGWSHPQFEK
chain 2: not shown
B17: DGL734 (bispecific antibody)
chain 1: B16 chain 1 with S32Y, Y33W, S35T, S55T, V62R, F98Y, Y103W
chain 2: not shown
B18: DGL864 (bispecific antibody)
chain 1: not shown
chain 2: B16 chain 1
B19: DGL868 (bispecific antibody)
chain 1: not shown
chain 2: B16 chain 1 with S32Y, S35N, Y103W, Q106Y
B20: DGL863 (bispecific antibody)
chain 1: not shown
chain 2: B16 chain 1
B21: DGL860 (bispecific antibody)
chain 1: not shown
chain 2: B16 chain 1 with S32Y, S35N, Y103W, Y107F
B22: DGL862 (bispecific antibody)
chain 1: not shown
chain 2: B16 chain 1 with S32Y, S35N, Y103W, Y107F
B23: DGL866 (bispecific antibody)
chain 1: not shown
chain 2: B16 chain 1 with S32Y, S35N, Y103W, Q106Y
B24: DGL861 (bispecific antibody)
chain 1: not shown
chain 2: B16 chain 1 with S32Y, S35N, Y103W, Y107F
B25: DGL865 (bispecific antibody)
chain 1: not shown
chain 2: B16 chain 1
B26: DGL656 (bispecific antibody)
chain 1: B16 chain 1 with S32Y, S35N, Y103W, Q106Y
chain 2: not shown
B27: DGL735 (bispecific antibody)
chain 1: B16 chain 1 with S32Y, Y33W, S35T, S55T, V62R, A101S, Y103W
chain 2: not shown
B28: DGL733 (bispecific antibody)
chain 1: B16 chain 1 with S32Y, S35T, S55T, V62R, Y103W
chain 2: not shown
B29: DGL867 (bispecific antibody)
chain 1: not shown
chain 2: B16 chain 1 with S32Y, S35N, Y103W, Q106Y
B30: DGL732 (bispecific antibody)
chain 1: B16 chain 1 with S32Y, Y33W, S35T, V62R, Y103W
chain 2: not shown

The binders below were run against human ALK1 protein (Sino Biological, #10066-H08H) (human, UniProt P37023 22-118) (assay: ELISA, coated human ALK1).
human ALK1 protein (Sino Biological, #10066-H08H), sequence (P37023 22-118 limits assumed): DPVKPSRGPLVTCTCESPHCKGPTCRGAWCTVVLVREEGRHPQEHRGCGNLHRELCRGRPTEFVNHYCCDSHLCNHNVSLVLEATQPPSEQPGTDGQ
Experimental: These binders were then tested using an ELISA assay. High binding plates (Corning, 9018) were coated with either 2 μg/ml of human BMPRII protein (Sino Biological, #10551-H08H) or 2 μg/ml of human ALK1 protein (Sino Biological, #10066-H08H) overnight at 4C. The plates were then washed three times with wash buffer (R&D Systems, WA126). […] The plates were then washed three times with wash buffer and DGL antibodies or controls, which were diluted with PBS and 0.1% BSA. The antibodies were incubated for one hour at room temperature and then the plates were washed three times with wash buffer. The plates were then incubated with mouse anti-human IgG Fc secondary—HRP (diluted with PBS/0.1% BSA); 100 ul per well at 2 μg/ml and incubated at room temperature for one hour. The plate was washed three times in wash buffer and then 100 ul TMB (R&D Systems, DY9998B, substrate reagent pack). After the wells turn blue, 50 ul of stop solution (R&D Systems, DY994) was added to each well and the absorbance of the plate was read at 450 nm. results can be found in Table 8.

Binder | Abs450 1 nM | Abs450 10 nM | Abs450 100 nM
B1 | 0.09 | 0.46 | 1.39
B2 | 0.09 | 0.47 | 1.4
B3 | 0.05 | 0.22 | 1.02
B4 | 0.11 | 0.56 | 1.45
B5 | 0.16 | 0.77 | 1.48
B6 | 0.07 | 0.19 | 0.7
B7 | 0.07 | 0.07 | 0.08
B8 | 0.14 | 0.61 | 1.43
B9 | 0.17 | 0.95 | 1.58
B10 | 0.06 | 0.05 | 0.06
B11 | 0.15 | 0.75 | 1.58

Each binder was assayed against ALK-1/BMPR-2 receptor pair of the PathHunter U2Os dimerization cells (DiscoverX 93-0962C3) (UniProt P37023 22-503; Q13873 27-1038) (assay: cell-based or functional assay).
ALK-1/BMPR-2 receptor pair of the PathHunter U2Os dimerization cells (DiscoverX 93-0962C3), sequence (P37023 22-503, chain 1 of 2): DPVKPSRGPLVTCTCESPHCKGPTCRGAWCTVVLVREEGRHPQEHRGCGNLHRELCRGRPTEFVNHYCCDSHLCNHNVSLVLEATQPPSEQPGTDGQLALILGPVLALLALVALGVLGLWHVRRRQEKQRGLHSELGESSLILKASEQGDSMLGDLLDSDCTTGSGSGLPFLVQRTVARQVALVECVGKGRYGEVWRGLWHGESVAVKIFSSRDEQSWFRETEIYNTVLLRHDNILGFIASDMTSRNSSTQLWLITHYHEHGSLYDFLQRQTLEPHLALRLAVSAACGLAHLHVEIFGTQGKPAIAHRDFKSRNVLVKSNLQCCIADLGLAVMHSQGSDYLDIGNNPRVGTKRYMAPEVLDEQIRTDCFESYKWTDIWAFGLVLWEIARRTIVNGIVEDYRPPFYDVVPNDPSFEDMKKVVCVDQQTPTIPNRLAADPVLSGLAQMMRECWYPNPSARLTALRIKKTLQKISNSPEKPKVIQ
ALK-1/BMPR-2 receptor pair of the PathHunter U2Os dimerization cells (DiscoverX 93-0962C3), sequence (Q13873 27-1038, chain 2 of 2): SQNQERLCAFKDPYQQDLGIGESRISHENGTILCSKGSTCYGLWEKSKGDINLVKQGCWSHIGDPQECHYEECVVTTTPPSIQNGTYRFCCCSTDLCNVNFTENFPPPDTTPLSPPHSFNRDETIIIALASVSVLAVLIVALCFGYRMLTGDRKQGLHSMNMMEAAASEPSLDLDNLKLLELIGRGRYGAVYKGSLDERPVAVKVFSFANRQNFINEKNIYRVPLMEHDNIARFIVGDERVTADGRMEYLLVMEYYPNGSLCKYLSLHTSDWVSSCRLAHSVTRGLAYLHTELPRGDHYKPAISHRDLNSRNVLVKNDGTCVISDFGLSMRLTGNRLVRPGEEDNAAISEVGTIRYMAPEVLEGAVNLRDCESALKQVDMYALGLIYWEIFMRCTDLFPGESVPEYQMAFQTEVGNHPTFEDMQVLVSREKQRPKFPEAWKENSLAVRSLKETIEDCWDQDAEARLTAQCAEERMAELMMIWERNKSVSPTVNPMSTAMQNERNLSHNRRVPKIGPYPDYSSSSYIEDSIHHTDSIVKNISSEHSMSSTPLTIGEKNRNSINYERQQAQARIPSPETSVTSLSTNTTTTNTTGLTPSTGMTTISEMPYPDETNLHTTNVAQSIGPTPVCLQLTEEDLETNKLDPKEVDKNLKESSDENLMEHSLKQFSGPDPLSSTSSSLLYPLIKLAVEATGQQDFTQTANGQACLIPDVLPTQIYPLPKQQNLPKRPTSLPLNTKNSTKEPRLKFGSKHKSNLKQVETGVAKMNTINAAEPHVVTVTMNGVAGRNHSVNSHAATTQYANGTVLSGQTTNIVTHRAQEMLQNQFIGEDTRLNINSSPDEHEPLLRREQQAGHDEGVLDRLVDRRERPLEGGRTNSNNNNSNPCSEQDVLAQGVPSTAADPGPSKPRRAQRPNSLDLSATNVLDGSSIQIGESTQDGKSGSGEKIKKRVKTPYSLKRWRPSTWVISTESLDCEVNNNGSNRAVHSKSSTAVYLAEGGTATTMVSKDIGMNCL

Binder | % Emax BMP9 [%] | Emax (RLU)
B1 | 41 | 752000
B12 | 77 | 1.2e+06
B13 | 100 | 1.56e+06
B14 | 22 | 342000
B15 | 73 | 1.13e+06
B2 | 83 | 1.53e+06
B3 | 80 | 1.47e+06
B4 | 20 | 362000
B5 | 21 | 382000
B6 | 13 | 470000
B7 | 5 | 168000
B8 | 30 | 1.11e+06
B9 | 30 | 1.09e+06
B10 | 4 | 130000
B11 | 25 | 936000
B16 | 18 | 437000
B17 | 14 | 217000
B18 | 22 | 553000
B19 | 67 | 1.71e+06
B20 | 24 | 604000
B21 | 79 | 2.01e+06
B22 | 83 | 2.13e+06
B23 | 45 | 1.15e+06
B24 | 81 | 2.08e+06
B25 | 30 | 755000
B26 | 55 | 1.36e+06
B27 | 68 | 1.06e+06
B28 | 106 | 1.65e+06
B29 | 58 | 1.48e+06
B30 | 54 | 845000
